# According to the nanobody polyreactivity screen of Harvey et al. (2022):
# Test: yeast display, Sf9 membrane polyspecificity reagent, FACS + sequencing; frameworks hold sequencing errors
# Outline: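 Galactose induction of a Saccharomyces cerevisiae BJ5465 synthetic nanobody display library ran 36–48 hours. The cells were then stained for 1 hour at 4 °C with 10% biotinylated, detergent-solubilized Sf9 membrane reagent, pulled down on streptavidin microbeads and FACS-sorted into low and high (top ~1%) gates on expression and reagent-binding fluorescence. Labels for polyreactivity follow the gate of origin.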
row,Sequence,polyreactivity (PSR sort gate)
1,QVQLVESGGGLVQAGGSLRLSCAASGSTFGNYAMGWYRQAPGKERELVAVITSAGSTYYADSVKGRFTISRDNAKNTVYLQMNSLKPEDTAVYYCNTGKHVRYYYWGQGTQVTVSS,low polyreactivity
2,QVQLVESGGGLVQAGGSLRLSCDASGSTFSYYAMGWYRQAPGKERDLVAAISSSGVRTYYADSVKGRFTISRDNAKNTVYLQMNSQKPEDTAVYYCAAGSRRGWLYRNRLWADYDYWGQGTQVTVSS,high polyreactivity
3,QVQLVESGGGLVQAGGSLRLSCAASGLTFEWYAMGWYRQAPGKERELVAAISWNGGSTYYADSVKGRFTISRDNAKNTVYLQMNSLKPEDTAVYYCATSSPRRYYWGQGTQVTVSS,high polyreactivity
4,QVQLVESGGGLVQAGGSLSLSCAASGSTFIKNAMGWYRQAPGKESELVAAINWSGTRTYYADSVKGRFTISRDNANNTVYLKMNSLKPEDTAVYYCAKVIARFVRYDYWGQGTQVTVSS,high polyreactivity
5,QVQLVESGGALVQAGGSLRLSCAASGNTFIPNAMGWYRQAPGKERELVAAIRASGGSTYYADSVKGRFTISRDNAKNTVYLQMNSLKPEDTAVYYCNADIWYKTYDYWGQGTQVTVSS,low polyreactivity
6,QVQLVESGGGLVQAGGSLRLSCAASGRIFNYYAMGWYRLAPGKERELVAAINSGGSTYADSVKGRFTISRDNAKNTVYLEMNSLKPEDTAVYYCANDGQLQSGRERPSGYDHWGQGTQVTVSS,low polyreactivity
7,QVQLVESGGGLVQAGGILRLSCAASGSTFYRNAMGWYRQEPGKEREFVAAISFRGGGTYADSVKGRFTISRDNAKNTVYLQMNSLKPEDSAVYYCAAESKPRWYVRYDYWGQGTQVTVSS,low polyreactivity
8,QVQLVESGGGLVQAGGSLRLSCAASGSIFRAYAMGWYRQAPGKERELVAAISWGGGSTSYADSVKGRFTLSRDNAKNTVYLQMNSLNPEDTAVYYCNKVSLSKRRDYYWGQGTQVTVSS,high polyreactivity
9,QVQLVESGGGLVQAGGSLRLICAASGLIFVYYAMGWYRQAPGKERELVAAIDWSSTRTYYADSVKGRFTISRDNATNTVYLQMNSLKPEDTAVYYCAAESRYLSWFDYWGQGTQVTVSS,high polyreactivity
10,QVQLVESGGGLVQAGGSLRLSCAASGSIFYRNAMGWYRQATGKERELVAAISASGGSTYYADSVKGRFTISRDNAKNTVYLQINSLKPEDTAVYYCAVEYRKSRSYYPYYYWGQGTQVTVSS,high polyreactivity
11,QFQLVESGGGLVQAGGSLRLSCAASGSIFTLYDMGWYRQAPGNERELVAAISSGGGSTYYADSVKGRFTISRDNAKNTVYLQMNSLKPEDTAVYYCAARNRRAKYGDWGQGTQVTVSS,high polyreactivity
12,QVQLVESGGGLVQAGGSLRLSCDASGIIFVKYAMGWYRQAPGKERELVAAITSGGSTYYADSVKGRFTISRDNAKNTVYLQMNSLKPEDTAVYYCNADTWFLYFFTINGYWGQGTQVTVSS,high polyreactivity
13,QVQHVESGGGLVQAGGSLLLSCAASGSIFGGNAKGWYRQAPGKERELVAVITSRGGSTYYADSVKGRFTISRDNAKNTVSLQMNSLKPEDTAVYYCNKRYLNRREGTDDYWGQGTQVTVSS,high polyreactivity
14,QVHLVESGGGEVQAGGSLRLSCAASGRTFYNYAMGWYRQAPGKERELVASIRKNGGSTYYAYSVKGRFSISRDNAKNTVYLQMNSLKPEDTAVYYFAARYWGISRIFPSKYDYWGQGTQVTVSS,high polyreactivity
15,QGQLVESGGGLVQAGGSLRLSCAASGSIFFGNAMGWYRQAPGKERELVAGITGGGSTYYADSVKGRFTISRDNAKNTVYLQMNSLKPEDTAVYYCNKKAYRKTGMDYWGQGTQVTVSS,low polyreactivity
16,QVQLVESGGGLVKAGGSLRLSCAASGRTFYVNAMGWYRQAPGKEREFVAAISRRGGSTYYADSVKGRFTISRDNAKNTVYFQLNSLKPEDTAVYYCATGYHRWSSWALDYWGQGTQVTVSS,high polyreactivity
17,QVQLVESGGGLVQAGGSLRLSCAASGFIFSGNAMGWYRQAPGKEREFVAAISTSAGTTNYADSVKGRFTISRDNAKNTVYLQMNSLKPEDTAVYYCAARSTRRRIYGYWGQGTQVTVSS,high polyreactivity
